The text below walks through data of patent publication US20170158757A1 (Bristol-Myers Squibb, published 2017).

Test [1] has as its target T1, human IP-10 (human, UniProt P02778 22-98).
T1 construct: The HDX-MS text says 'recombinant full length human IP-10'; An IP10 dimer was placed in the crystal structure; also called huIP-10; CXCL10
T1 sequence: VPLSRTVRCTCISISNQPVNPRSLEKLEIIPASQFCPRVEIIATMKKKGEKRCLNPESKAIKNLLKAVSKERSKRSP
The test can be described thus: SPR (Biacore) at 37 C, IgG1, human IP-10 (second row for IP10.1g1f). Background: SPR reads the build-up and loss of mass on a sensor chip optically.

Test [2] deals with T1, human IP-10. The test is described as follows: Biacore kinetic analysis.
For another test, the target named is T2, mouse IP-10 (mouse, UniProt P17515 22-98).
T2 sequence: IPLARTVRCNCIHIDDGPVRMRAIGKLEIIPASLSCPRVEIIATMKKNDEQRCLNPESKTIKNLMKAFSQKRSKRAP
The test can be described thus: Biacore-based binding studies.

For test [3], the target named is T1, human IP-10. The test is described as follows: Biacore-based binding studies.
Test [4] deals with T3, cynomolgus monkey IP-10 (cynomolgus monkey, UniProt A0A2K5WKN6 22-98).
T3 construct: endogenous serum IP-10 in the monkey studies; also called cynoIP-10; cyno IP10
T3 sequence: T1 sequence with V1I, A32P, R38H
The test is described as follows: in vivo Kd estimated by PK/PD modeling of free drug, free and total serum IP-10 in cynomolgus monkeys; in vivo Kd from PK/PD modeling in cynomolgus monkeys, not a direct binding assay.

Test [5] concerns the target T4, human MIG (human, UniProt Q07325 23-125).
T4 construct: also called monokine induced by gamma interferon; CXCL9
T4 sequence: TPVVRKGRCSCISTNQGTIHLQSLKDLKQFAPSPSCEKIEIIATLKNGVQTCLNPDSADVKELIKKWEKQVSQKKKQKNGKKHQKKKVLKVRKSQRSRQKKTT
The test can be described thus: Biacore SPR.

Another test addresses T5, human ITAC (human, UniProt O14625 22-94).
T5 construct: also called interferon-inducible T cell alpha chemoattractant; CXCL11
T5 sequence: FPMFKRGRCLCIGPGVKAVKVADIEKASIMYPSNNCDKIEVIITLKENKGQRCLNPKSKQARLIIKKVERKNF
The test can be described thus: Biacore SPR.

The target of test [6] is T1, human IP-10. The test is described as follows: SPR (Biacore) at 37 C, IgG1, human IP-10.
The target in test [7] is T1, human IP-10. The test is described as follows: Biacore SPR, huIP-10.
Test [8] deals with T3, cynomolgus monkey IP-10. The test is described as follows: Biacore SPR, cynoIP-10.
The target in test [9] is T3, cynomolgus monkey IP-10. The test is described as follows: cell-based or functional assay.
Test [10] deals with T1, human IP-10. The test can be described thus: cell-based or functional assay.
Test [11] has as its target T1, human IP-10. The test can be described thus: whole cell binding assays with I125-IP-10 (CXCR3/300.19 and KM12SM cells).
Test [12] concerns the target T3, cynomolgus monkey IP-10. The test can be described thus: cell-based or functional assay. The source holds these as a separate data set.
The target in test [13] is T3, cynomolgus monkey IP-10. The test is described as follows: in vivo Kd estimated by PK/PD modeling in cynomolgus monkeys.
In test [14] the target is T4, human MIG. The test is described as follows: Biacore SPR, MIG; Biacore, lot 3007: weak measured KD for MIG, about 17000 times weaker than for huIP-10 (0.01 nM).
Test [15] deals with T1, human IP-10. The test can be described thus: Biacore SPR, huIP-10 (text: limit of detection with the Biacore is 90 pM).
Test [16] deals with T4, human MIG. The test is described as follows: Biacore SPR, MIG.

Substitutions are numbered along the chain they refer to. Bounds are passed on as bounds.

What is called Kd is the equilibrium constant for the complex coming apart. The term koff denotes the first-order rate constant of dissociation. By kon is commonly meant the second-order rate constant of association.

B1: IP10.1 (antibody, human IgG1, kappa, V domains shown)
VH: QMQLVESGGGVVQPGRSLRLSCTASGFTFSNNGMHWVRQAPGKGLEWVAVIWFDGMNKFYVDSVKGRFTISRDNSKNTLYLEMNSLRAEDTAIYYCAREGDGSGIYYYYGMDVWGQGTTVTVSS
VL: not shown
notes: Human IgG1 (g1f) full-length antibody; Parent antibody of all variants; also called 6A5; antibody 6A5
Regarding B1, the Kd is 6.27 nM with human IP-10 [1]; around 5 nM in the test with human IP-10 [3]; 6.5 nM with cynomolgus monkey IP-10 [4]; 4.18 nM in the test with human IP-10 [6]; 8.53 nM in the test with human IP-10 [7]; 14.9 nM with cynomolgus monkey IP-10 [8]. Further, the koff worked out at 0.000138 s⁻¹ in the test with human IP-10 [1], 0.000151 s⁻¹ with human IP-10 [6] and 6.8e-05 s⁻¹ in the test with human IP-10 [7]. Further, the association rate constant (kon) in the test with human IP-10 [1] came to 22000 M⁻¹ s⁻¹; in the test with human IP-10 [6] it was 36200 M⁻¹ s⁻¹; with human IP-10 [7] it was 8000 M⁻¹ s⁻¹. Further, the “estimated t1/2 (half-life of IP-10 association)” value with human IP-10 [2] was around 3 h. Moreover, the binding result with mouse IP-10, in the test with human MIG [5] and with human ITAC was “no binding” throughout.

B2: IP10.44 (antibody, human IgG1, kappa, V domains shown)
VH: QVQLVESGGGVVQPGRSLRLSCAASGFTFSEYGMHWVRQAPGKGLEWVAVIGFAGLIKGYADSVKGRFTISRDNSKNTLYLQMNSLRAEDTAVYYCAREGAGSNIYYYYGMDVWGQGTTVTVSS
VL: not shown
notes: Human IgG1 full-length antibody; also called BMS-986184; IP10.44-g1f
For the molecule B2, the “estimated t1/2 (half-life of IP-10 association)” value in the test with human IP-10 [2] was above 100 h. For the same molecule, the binding result in the test with mouse IP-10 and in the test with human ITAC was “no binding” in each case. The “fold improvement of KD against IP10.1” value in the test with human IP-10 [3] is at least 50 fold. Moreover, the “IC50 of free serum IP-10 suppression against free drug concentration in cynomolgus monkeys” value with cynomolgus monkey IP-10 [9] is 0.223 nM. In addition, the “fold better potency than IP10.1, IL-6 secretion by hPBMCs” value with human IP-10 [10] was around 6 fold. Besides, the “fold greater potency relative to IP10.1, IL-12p40 secretion by hPBMCs” value with human IP-10 [10] worked out at 4 fold. Moreover, the equilibrium dissociation constant (Kd) was 0.043 nM with cynomolgus monkey IP-10 [4]; 0.17 nM with human IP-10 [6]; 168 nM with human MIG [14]; 0.2 nM with cynomolgus monkey IP-10 [8]; 0.01 nM with human IP-10 [15]. Besides, the “fold better potency than IP10.1 in blocking IP-10 binding to cells” value in the test with human IP-10 [11] is at least 5 fold. The dissociation rate constant (koff) with human IP-10 [6] amounted to 4e-06 s⁻¹; with human IP-10 [7] it was 1e-07 s⁻¹. In addition, the figures for the kon with human IP-10 [6] and with human IP-10 [7] were 26200 M⁻¹ s⁻¹ and 11600 M⁻¹ s⁻¹, respectively. Also, in the test with cynomolgus monkey IP-10 [12], the “IC50 (read off the curve)” value was around 0.3 nM. In addition, in the test with cynomolgus monkey IP-10 [13], the “fold more potent than IP10.1 (in vivo Kd)” value is around 150 fold.

B3: IP10.46 (antibody, human IgG1, kappa, V domains shown)
VH: B2 VH with A23T, E31Q, G52S, F53Y, A54G, L56D, G59Y, A101E
VL: not shown
notes: IgG1 full-length variant of IP10.1; also called IP10.46-g1f
B3: in the test with human ITAC, the binding result is reported as “no binding”. The Kd is 77.5 nM in the test with human MIG [16], 0.12 nM in the test with human IP-10 [6], 0.11 nM with human IP-10 [7] and 0.19 nM with cynomolgus monkey IP-10 [8]. Moreover, the koff is 2e-06 s⁻¹ with human IP-10 [6] and 1e-06 s⁻¹ with human IP-10 [7]. The kon is 13500 M⁻¹ s⁻¹ with human IP-10 [6] and 9600 M⁻¹ s⁻¹ with human IP-10 [7].

B4: IP10.45 (antibody, human IgG1, kappa, V domains shown)
VH: B2 VH with A23T, E31K, Y32H, L56V, G59S, A101E, Y107F
VL: not shown
notes: IgG1 full-length variant of IP10.1; also called IP10.45-g1f
For the molecule B4, the binding result in the test with human MIG [5] and with human ITAC was “no binding” in each case. In the test with cynomolgus monkey IP-10 [8], this molecule displayed an equilibrium dissociation constant (Kd) of 4.74 nM.

B5: IP10.52 (antibody, human IgG1, kappa, V domains shown)
VH: B2 VH with A23T, E31D, F53Y, A54G, N104S, I105V
VL: not shown
notes: IgG1 full-length variant of IP10.1; also called IP10.52-g1f
B5: the binding result in the test with human ITAC is given as “no binding”. Besides, the affinity with human MIG [16], expressed as Kd, was 73.5 nM. In the test with human IP-10 [7], this molecule showed a Kd of 0.04 nM, a dissociation rate constant (koff) of 5e-07 s⁻¹ and a kon of 13000 M⁻¹ s⁻¹. The same molecule came in with a Kd with cynomolgus monkey IP-10 [8] of 1.43 nM.

B6: IP10.48 (antibody, human IgG1, kappa, V domains shown)
VH: B2 VH with E31N, G52D, L56I, I57N, G59Y, A101E, Y107F, Y108F
VL: not shown
notes: IgG1 full-length variant of IP10.1; also called IP10.48-g1f
With B6, in the test with human IP-10 [6], the Kd worked out at 0.34 nM, the koff came to 5e-06 s⁻¹ and the kon came to 14100 M⁻¹ s⁻¹.

B7: IP10.43 (antibody, human IgG1, kappa, V domains shown)
VH: B2 VH with A23T, E31S, G52D, A54V, L56D, I57T, G59Y, A61T
VL: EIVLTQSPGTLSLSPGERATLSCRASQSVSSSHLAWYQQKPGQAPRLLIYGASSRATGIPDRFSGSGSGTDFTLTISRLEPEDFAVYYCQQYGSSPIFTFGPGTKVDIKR
notes: IgG1 full-length variant of IP10.1
In the case of B7, in the test with human IP-10 [6], the dissociation constant Kd was 1.64 nM, the koff turned out to be 1.7e-05 s⁻¹ and the kon is 9300 M⁻¹ s⁻¹.

B8: IP10.54 (antibody, human IgG1, kappa, V domains shown)
VH: B2 VH with A23T, E31Q, G52S, F53Y, A54G, L56D, G59Y, Q82E, V93I, A101E
VL: not shown
notes: IgG1 full-length variant of IP10.1; also called IP10.54-g1f
In the test with human IP-10 [6], B8 gave an equilibrium dissociation constant (Kd) of 0.25 nM, a koff of 4e-06 s⁻¹ and an on-rate constant (kon) of 15400 M⁻¹ s⁻¹.

B9: IP10.51 (antibody, human IgG1, kappa, V domains shown)
VH: B2 VH with A23T, E31D, F53Y, A54G, N104S
VL: not shown
notes: IgG1 full-length variant of IP10.1; also called IP10.51-g1f
As for B9, the Kd with human IP-10 [6] turned out to be 0.96 nM.

B10: IP10.47 (antibody, human IgG1, kappa, V domains shown)
VH: B2 VH with E31T, Y32H, A54G, G59S, A101D, N104S, I105L, Y107F
VL: not shown
notes: IgG1 full-length variant of IP10.1; also called IP10.47-g1f
Take B10: in the test with human IP-10 [6], the affinity, expressed as Kd, was 0.56 nM; the koff worked out at 1.4e-05 s⁻¹; the association rate constant (kon) is 24000 M⁻¹ s⁻¹.

B11: IP10.49 (antibody, human IgG1, kappa, V domains shown)
VH: B2 VH with A23T, E31Q, Y32S, A54G, G59S, A101D, N104G
VL: not shown
notes: IgG1 full-length variant of IP10.1; also called IP10.49-g1f
In the test with human IP-10 [6], B11 gave a dissociation constant (Kd) of 0.41 nM, a koff of 6e-06 s⁻¹ and a kon of 14700 M⁻¹ s⁻¹.

B12: IP10.53 (antibody, human IgG1, kappa, V domains shown)
VH: B2 VH with E31D, G52S, F53H, A54N, L56A, A101D
VL: not shown
notes: IgG1 full-length variant of IP10.1; also called IP10.53-g1f
Turning to B12, the binding result in the test with human ITAC is on record as “no binding”. Moreover, the Kd with human MIG [16] worked out at 54.3 nM; with cynomolgus monkey IP-10 [8] it was 0.22 nM.
